Consider 8 substances from paper PMC4278837, “A Cyclic Peptidic Serine Protease Inhibitor: Increasing Affinity by Increasing Peptide Flexibility” (PLoS ONE, 2014).

The target in experiment [1] is huPA-H99Y (full length human urokinase-type plasminogen activator with H99Y) (human). The experiment is described as follows: enzyme inhibition (steady state, chromogenic substrate S-2444); about 2 nM enzyme (purified or conditioned medium of transfected cells) pre-incubated 15 min with varied peptide in HBS (10 mM HEPES pH 7.4, 140 mM NaCl) with 0.1% BSA at 37°C; substrate about KM; fit for competitive inhibition; highest peptide concentration 400 µM.

For experiment [2], the target named is recombinant catalytic domain of huPA-H99Y (residues 159-411) (human) (UniProt P00749). The experiment is described as follows: ITC; MicroCal ITC200; peptide injected into 5-50 µM huPA-H99Y catalytic domain; 20 mM sodium phosphate pH 7.4, 140 mM NaCl, 25°C; one-binding-site model. On the technique in general: In ITC the heat of successive injections is recorded.

In experiment [3] the target is huPA-H99Y (full length human urokinase-type plasminogen activator with H99Y) (human). The experiment is described as follows: SPR; Biacore T200; uPA variant amine-coupled to a CM5 chip (about 500 RU); peptides injected in HBS with 0.1% BSA, 30 µL/min, 25°C, pH 7.4; 1:1 kinetic fit; KD = koff/kon. (SPR reads the build-up and loss of mass on a sensor chip optically.)
The target of another experiment is huPA-H99Y-K143A (human). The experiment in a line: enzyme inhibition (steady state, chromogenic substrate S-2444); about 2 nM enzyme (purified or conditioned medium of transfected cells) pre-incubated 15 min with varied peptide in HBS (10 mM HEPES pH 7.4, 140 mM NaCl) with 0.1% BSA at 37°C; substrate about KM; fit for competitive inhibition; highest peptide concentration 400 µM.

The next experiment has as its target huPA-H99Y-Q192A (human). The description is as above.
The target of the next experiment is huPA-H99Y-R35A (human). The description is as above.
The target in the next experiment is huPA-H99Y-V41A (human). The experiment is described as above.

Usually Ki stands for the dissociation constant of the complex between target and ligand, obtained from inhibition or displacement. Mupain-1 S5A (peptide) gave an inhibition constant (Ki) in experiment [1] above 1000 µM.
The Kd is the equilibrium constant for the complex coming apart. Broadly, the stoichiometry N is a count of units in the complex or per binding partner. One may read the koff as the rate constant with which the complex falls apart. The low end stands for a long-lived complex, the high end for a short-lived complex. As a reminder, the kon is the second-order rate constant of association. Read a high kon as faster complex formation. Regarding mupain-1 (peptide), in experiment [2], the Kd is 5.04 µM, the dH is -8.72 kcal/mol and the stoichiometry N worked out at 1.09. In experiment [3], the Kd was 14.1 µM, the koff was determined as 0.802 s⁻¹ and the kon amounted to 56900 M⁻¹ s⁻¹. Besides, the Ki with huPA-H99Y-K143A (human) was 56.6 µM. The substance further returned a Ki with huPA-H99Y-Q192A (human) of 33.2 µM. The same substance gave a Ki with huPA-H99Y-R35A (human) of 39.5 µM. The substance also gave a Ki in the experiment with huPA-H99Y-V41A (human) of 32.4 µM.
In experiment [1], Mupain-1 Y4A (peptide) displayed a Ki above 1000 µM.
The same measure, in the same setting: the same measure for Mupain-1 Y7A (peptide): 44 µM.
For the substance Mupain-1 D9A (peptide), the figures for the Kd in experiment [2] and in experiment [3] were 1.17 µM and 1.41 µM, respectively. Further, in experiment [2], the dH is -9.06 kcal/mol. Further, the stoichiometry N in experiment [2] came to 1.03. The koff in experiment [3] stood at 0.366 s⁻¹. Also, the kon in experiment [3] is 260000 M⁻¹ s⁻¹. Further, the Ki in experiment [1] was determined as 5.99 µM; in the experiment with huPA-H99Y-K143A (human) it was 8.74 µM; in the experiment with huPA-H99Y-Q192A (human), 4.85 µM; with huPA-H99Y-R35A (human), 2.68 µM; with huPA-H99Y-V41A (human), 7.2 µM.
Mupain-1 L8A (peptide) came in with a Ki in experiment [1] of 19.1 µM.
Same read-out and setting: the same measure for Mupain-1 R6A (peptide): above 1000 µM; for Mupain-1 P2A (peptide): above 1000 µM.
